Assay results reported in patent publication US20090035321A1, “Intercellular adhesion molecules and their binding ligands” (Boehringer Ingelheim Pharmaceuticals, Inc., published 2009).

Columns and labels:
Assay in all cases: COS cells on LFA-1 coated plastic
ICAM-1 R149RD/EEG = ICAM-1 R149RD/EEG (human, UniProt P05362)
ICAM-1 R49KV/EKL = ICAM-1 R49KV/EKL (human, UniProt P05362)
ICAM-1 Q1/K = ICAM-1 Q1/K (human, UniProt P05362)
ICAM-1 K128/R = ICAM-1 K128/R (human, UniProt P05362)
ICAM-1 N103/K = ICAM-1 N103/K (human, UniProt P05362)
ICAM-1 Y52/FA = ICAM-1 Y52/FA (human, UniProt P05362)
ICAM-1 A189T/SI = ICAM-1 A189T/SI (human, UniProt P05362)
ICAM-1 Q1T/KA = ICAM-1 Q1T/KA (human, UniProt P05362)
ICAM-1 A178/G = ICAM-1 A178/G (human, UniProt P05362)
ICAM-1 R166PQ/EPA = ICAM-1 R166PQ/EPA (human, UniProt P05362)
ICAM-1 S5/T (human) = ICAM-1 S5/T (human) (UniProt P05362)
ICAM-1 E59/Q = ICAM-1 E59/Q (human, UniProt P05362)

- LFA-1 Binding % (% of wild type) (ICAM-1 R149RD/EEG): 81
- LFA-1 Binding % (% of wild type) (ICAM-1 R49KV/EKL): 123
- LFA-1 Binding % (% of wild type) (ICAM-1 Q1/K): 97
- LFA-1 Binding % (% of wild type) (ICAM-1 K128/R): 109
- LFA-1 Binding % (% of wild type) (ICAM-1 N103/K): 12
- LFA-1 Binding % (% of wild type) (ICAM-1 Y52/FA): 138
- LFA-1 Binding % (% of wild type) (ICAM-1 A189T/SI): 91
- LFA-1 Binding % (% of wild type) (ICAM-1 Q1T/KA): 119
- LFA-1 Binding % (% of wild type) (ICAM-1 A178/G): 59
- LFA-1 Binding % (% of wild type) (ICAM-1 R166PQ/EPA): 75
- LFA-1 Binding % (% of wild type) (ICAM-1 S5/T (human)): 104
- LFA-1 Binding % (% of wild type) (ICAM-1 E59/Q): 84
Substance: purified LFA-1, bound to plastic (from UniProt P20701) (receptor)
